Experimental data published in PMC5808563.
Where two headings read alike, the source gives them in different places.

Legend:
[1] = molecular target: integrin β3 transmembrane-cytoplasmic domain (TM/tail, residues 685-762) embedded in Nanodiscs (UniProt P05106); experiment: FRET or BRET
[2] = molecular target: integrin β3 transmembrane-cytoplasmic domain (TM/tail, residues 685-762) embedded in Nanodiscs (UniProt P05106); experiment: FRET or BRET; remark: listed apart in the source

Sequence of UniProt P05106 (P05106 711-788): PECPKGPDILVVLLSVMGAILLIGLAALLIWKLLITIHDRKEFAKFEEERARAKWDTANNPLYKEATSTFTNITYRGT

talin-1 head domain (THD) I398C, Uniblue A labelled (from UniProt P26039 1-433) (domain or fragment)
Kd [1]: 0.58 µM | Kd [2]: 0.74 µM | fold increase in affinity over 50% DMPS Nanodiscs without the integrin tail [2]: 2 fold
